From patent US20030144339A1, “Indole derivatives as mcp-1 receptor antagonists” (priority 2000, published 2003)

Tests used:
[1] = target: T1, MCP-1 receptor B (CCR2B) (Homo sapiens, UniProt P41597); assay: hMCP-1 receptor binding assay (125I-MCP-1, CHO-CCR2B cell membranes)
T1 construct: expressed in transfected cells; membrane fragments
T1 sequence (P41597 1-360 isoform P41597-2): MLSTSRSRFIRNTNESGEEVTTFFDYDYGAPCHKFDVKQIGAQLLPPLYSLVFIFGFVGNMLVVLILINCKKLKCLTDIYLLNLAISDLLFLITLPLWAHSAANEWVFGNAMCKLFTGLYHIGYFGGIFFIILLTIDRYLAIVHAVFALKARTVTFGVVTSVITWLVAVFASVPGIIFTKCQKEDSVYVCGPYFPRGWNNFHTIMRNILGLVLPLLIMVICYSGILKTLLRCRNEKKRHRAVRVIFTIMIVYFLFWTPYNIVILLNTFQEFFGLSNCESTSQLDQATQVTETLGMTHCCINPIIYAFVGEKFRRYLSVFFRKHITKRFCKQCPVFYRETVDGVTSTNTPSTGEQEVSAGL
Description: The MCP-1 receptor B (CCR2B) cDNA was cloned by PCR from ThP-1 cell RNA using suitable oligonucleotide primers based on the published MCP-1 receptor sequences (Charo et al., 1994, Proc. Natl. Acad. Sci. USA, 91, 2752). The resulting PCR products were cloned into vector PCR-II™ (In Vitrogen, San Diego, Calif.). Error free CCR2B cDNA was subcloned as a Hind III-Not I fragment into the eukaryotic expression vector pCDNA3 (In Vitrogen) to generate pCDNA3/CC-CKR2A and pCDNA3/CCR2B respectively.
Linearised pCDNA3/CCR2B DNA was transfected into CHO-K1 cells by calcium phosphate precipitation (Wigler et al., 1979, Cell, 16, 777). Transfected cells were selected by the addition of Geneticin Sulphate (G418, Gibeo BRL) at 1 mg/ml, 24 hours after the cells had been transfected. Preparation of RNA and Northern blotting were carried out as described previously (Needham et al., 1995, Prot. Express. Purific., 6, 134). CHO-K1 clone 7 (CHO-CCR2B) was identified as the highest MCP-1 receptor B expresser.
CHO-CCR2B cells were grown in DMEM supplemented with 10% foetal calf serum, 2 mM glutamine, 1× Non-Essential Amino Acids, 1× Hypoxantiine and Thymidine Supplement and Penicillin-Streptomycin (at 50 μg streptomycin/ml, Gibco BRL). Membrane fragments were prepared using cell lysis/differential centrifuigation methods as described previously (Siciliano et al., 1990, J. Biol. Chem., 265, 19658). […]

[2] = system: THP-1 cells; assay: MCP-1 mediated calcium flux in THP-1 cells; assay type: cell-based, human; conditions: FURA-2, stimulation with hMCP-1, read-out: EC50 of rise in [Ca2+]i
Protocol: The human monocytic cell line TIP-1 was grown in a synthetic cell culture medium RPM 1640 supplemented with 10% foetal calf serum, 6 mM glutamine and Penicillin-Streptomycin (at 50 μg streptomycin/ml, Gibeo BRL). THP-1 cells were washed in HBSS (lacking Ca^2+ and Mg^2+)+1 mg/ml BSA and resuspended in the same buffer at a density of 3×10^6 cells/ml. The cells were then loaded with […] FURA-2/AM for 30 mrin at 37° C., washed twice in HBSS, and resuspended at 1×10^6 cells/ml. TrP-1 cell suspension (0.9 ml) was added to a 5 ml disposable cuvette containing a magnetic stirrer bar and 2.1 ml of prewarmed (37° C.) HBSS containing 1 mg/ml BSA, 1 mM MgCl2 and 2 mM CaCl2. The cuvette was placed in a fluorescence spectrophotometer (Perkin Elner, Norwalk, Conn.) and preincubated for 4 min at 37° C. with stirring. Fluorescence was recorded over 70 sec and cells were stimulated by addition of hMCP-1 to the cuvette after 10 sec. [Ca^2+]i was measured by excitation at 340 nm and 380 nm alternately and subsequent measurement of the intensity of the fluorescence emission at 510 nm.
where the Kd for FURA-2 Ca^2+ complex at 37° C. was taken to be 224 nm. […]

[3] = system: THP-1 cells; assay: hMCP-1 mediated chemotaxis of THP-1 cells; assay type: cell-based, human; conditions: 2 h at 37° C.
Protocol: In vitro chemotaxis assays were performed using the human monocytic cell line THP-1. Cell migration through polycarbonate membranes was measured by enumerating those passing through either directly by Coulter counting or indirectly by use of a colourimetric viability assay measuring the cleavage of a tetrazolium salt by the mitochondrial respiratory chain (Scudiero D. A. et al. 1988, Cancer Res., 48, 4827-4833).
Chemoattractants were introduced into a 96-well microtitre plate which forms the lower well of a chemotaxis chamber fitted with a PVP-free 5 μm poresize polycarbonate adhesive framed filter membrane (NeuroProbe MB series, Cabin John, Md. 20818, USA) according to the manufacturer's instructions. […] The plate was incubated at 37° C. for 3 h and the absorbance of the soluble formazan product was read on a microtitre plate reader at 450 nm. The data was input into a spreadsheet, corrected for any random migration in the absence of chemoattractant and the average absorbance values, standard error of the mean, and significance tests were calculated. bMCP-1 induced concentration dependent cell migration with a characteristic biphasic response, maximal 0.5-1.0 nm.

MCP-1: Human Monocyte Chemoattractant Protein-1, a C-C chemokine; natural ligand of the CCR2 receptor, used as assay ligand/stimulus
IC50 ([1]; cold competition with 100 pM 125I-labeled MCP-1, room temperature, read-out: IC50 of MCP-1 binding to CHO-CCR2B membrane fragments): 0.11 nM
Kd ([1]; equilibrium binding, room temperature, read-out: Kd of MCP-1 binding to CHO-CCR2B membrane fragments): 0.12 nM
EC50 [2]: ~2 nM
concentration giving maximal cell migration (biphasic response) [3]: 0.5-1.0 nm
